For one test, the system named is L-biotin-labeled albumin. The experiment in a line: SPR (Biacore T200) binding evaluation to L-biotin-labeled albumin. On the set-up: species or system bovine. The note with it: analyte flowed at 30 μL/min up to 100 nM, single cycle method, albumin immobilized on sensor chip. How it is done:
(§1) A binding ability of D-streptavidin obtained in Example 1 to D-biotin as a natural form and L-biotin as an optical isomer of D-biotin was evaluated by an intermolecular interaction analyzer (Biacore T200) using SPR as a measurement principle.
Similarly, L-biotin-labeled albumin was prepared using L-biotin-AC5-OSu [see (Amidation of L-biotin) described in Example 3 above].
Bovine serum albumin was immobilized on flow cells 1 and 3 of a CMS sensor chip (manufactured by Cytiva) of a Biacore T200 system at a target level of 400 RU by an amine coupling method with an amine coupling kit (Cytiva). Further, L-biotin-labeled albumin and D-biotin-labeled albumin were immobilized at a target level of 400 RU to flow cells 2 and 4, respectively, similarly by an amine coupling method. Blocking was performed in each flow cell with 1 M ethanolamine solution, pH 8.5 (manufactured by Cytiva). […]
(§2) Using HBS-EP+(manufactured by Cytiva) as a running buffer, the prepared D-tamavidin (trademark) 2 was flowed into each flow cell at a flow rate of 30 μL/min in the range of 100 pM to 100 nM by a single cycle method, and binding and dissociation to D-biotin or L-biotin was evaluated by Biacore T200 Evaluation Software (manufactured by Cytiva).
(In general: SPR reads the build-up and loss of mass on a sensor chip optically.)

A further test has as its system D-biotin-labeled albumin. Put plainly: SPR (Biacore T200) binding evaluation to D-biotin-labeled albumin. Further details: species or system bovine. The note with it: analyte flowed at 30 μL/min up to 100 nM, single cycle method, albumin immobilized on sensor chip. How it is done: as §1
An N,N-dimethylformamide solution (16.3 μL) containing 10 mg/mL D-biotin-AC5-OSu (manufactured by DOJINDO LABORATORIES) was added to 2.8 mL of 50 mg/mL bovine serum albumin/0.1 M phosphate buffer solution (pH 7.5), and the mixture was stirred, then allowed to stand at 35° C. for 1 hour. Thereafter, desalting was performed by PD-10 (17085101, manufactured by Cytiva) equilibrated with a 0.1 M phosphate buffer (pH 7.5), and D-biotin-labeled albumin was recovered. The number of labeled D-biotin per molecule of albumin by HABA method was 0.4.
Bovine serum albumin was immobilized on flow cells 1 and 3 of a CMS sensor chip (manufactured by Cytiva) of a Biacore T200 system at a target level of 400 RU by an amine coupling method with an amine coupling kit (Cytiva). […]
as §2

“Also recorded” adds a separate entry of the source.

B1: D-tamavidin (trademark) 2: avidin-like protein derived from Pleurotus cornucopiae consisting of D amino acids, 2nd to 141st amino acid sequence of SEQ ID NO: 4 (peptide, listed as Pleurotus cornucopiae)
chain: SDVQSSLTGTWYNELNSKMELTANKDGTLTGKYLSKVGDVYVPYPLSGRYNLQPPAGQGVALGWAVSWENSKIHSATTWSGQFFSESSPVILTQWLLSSSTARGDVWESTLVGNDSFTKTAPTEQQIAHAQLHCRAPRLK
modifications: D-amino acids
Consider B1, for which the “binding to L-biotin-labeled albumin (SPR sensorgram)” value with L-biotin-labeled albumin is “increase in the SPR signal was observed; also recorded: binds”. In the test with D-biotin-labeled albumin, the “binding to D-biotin-labeled albumin (SPR sensorgram)” value is “No increase in SPR signal; also recorded: does not substantially bind”.

Source of the values: patent US20230288411A1, “POLYPEPTIDE, MULTIMER, SOLID PHASE, MEASUREMENT METHOD FOR TEST SUBSTANCE, AND REAGENT KIT” (SYSMEX CORPORATION, priority 2020, published 2023).
